Data as given in paper PMC6218510, “Step Sizes and Rate Constants of Single-headed Cytoplasmic Dynein Measured with Optical Tweezers” (Scientific Reports, 2018).

Columns and labels:
[1] = tested on: T1, Nc1ncnc2c1ncn2[C@@H]1O[C@H](COP(=O)(O)OP(=O)(O)OP(=O)(O)O)[C@@H](O)[C@H]1O; test: purified protein; format: biochemical, Homo sapiens; settings: basal, no microtubules, 25 °C
T1 construct: motor domain with short tail Gly1288-Glu4646 (384 kDa), N-terminal FLAG tag and BCCP kept; Sf9 baculovirus; monomer

[2] = tested on: T1, Nc1ncnc2c1ncn2[C@@H]1O[C@H](COP(=O)(O)OP(=O)(O)OP(=O)(O)O)[C@@H](O)[C@H]1O; test: optical tweezers, mean displacement of single-headed dynein against ATP; format: biochemical, Homo sapiens; settings: with microtubules (paclitaxel), pH 7.2, 25 mM PIPES, 25 mM K-acetate, 2 mM MgCl2, 25 °C, half of power stroke size
[3] = target: microtubules (polymerized tubulin); test: optical tweezers (single-trap assay); single GST-D384 molecules on a trapped bead, polarity-marked microtubules fixed on glass (amino-silane, glutaraldehyde), trap stiffness 16 fN/nm, 1 mM ATP; duty ratio calculated from the decay of peak force/displacement (run length), (1-rd)^2 = 0.26
microtubules (polymerized tubulin), sequence (chain, as listed by the source, chain 1 of 2): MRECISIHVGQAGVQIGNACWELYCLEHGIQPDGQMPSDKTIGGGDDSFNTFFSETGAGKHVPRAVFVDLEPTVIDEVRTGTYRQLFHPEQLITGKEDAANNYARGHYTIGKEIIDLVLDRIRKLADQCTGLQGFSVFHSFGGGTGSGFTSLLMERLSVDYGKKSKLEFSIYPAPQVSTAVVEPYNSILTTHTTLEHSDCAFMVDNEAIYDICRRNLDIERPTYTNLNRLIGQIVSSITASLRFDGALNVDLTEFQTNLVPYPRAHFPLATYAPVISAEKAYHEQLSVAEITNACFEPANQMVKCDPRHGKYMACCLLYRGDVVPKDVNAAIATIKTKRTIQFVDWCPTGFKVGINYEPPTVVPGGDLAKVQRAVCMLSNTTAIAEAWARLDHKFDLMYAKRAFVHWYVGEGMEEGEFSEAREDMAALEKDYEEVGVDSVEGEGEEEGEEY
microtubules (polymerized tubulin), sequence (chain, as listed by the source, chain 2 of 2): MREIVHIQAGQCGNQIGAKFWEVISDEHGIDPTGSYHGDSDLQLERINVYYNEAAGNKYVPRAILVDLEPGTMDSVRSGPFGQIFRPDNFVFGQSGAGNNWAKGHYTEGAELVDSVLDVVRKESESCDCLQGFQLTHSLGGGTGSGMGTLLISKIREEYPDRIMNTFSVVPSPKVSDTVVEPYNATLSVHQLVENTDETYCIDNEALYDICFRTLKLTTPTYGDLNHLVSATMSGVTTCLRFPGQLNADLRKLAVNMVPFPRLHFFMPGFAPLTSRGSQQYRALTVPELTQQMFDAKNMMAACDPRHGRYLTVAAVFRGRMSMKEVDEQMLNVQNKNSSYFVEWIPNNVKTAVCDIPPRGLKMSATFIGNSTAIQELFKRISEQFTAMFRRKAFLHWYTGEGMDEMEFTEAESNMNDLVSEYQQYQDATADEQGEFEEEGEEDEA

[4] = target: microtubules (polymerized tubulin); test: optical tweezers (single-trap assay) + other: in vitro motility assay; duty ratio calculated from the velocity of a single GST-D384 molecule at no load (387 nm/s) and the microtubule gliding velocity (481 nm/s) at 1 mM ATP
[5] = target: microtubules (polymerized tubulin)

D384 (single-headed human cytoplasmic dynein-1 motor domain) (Homo sapiens)
Km [1]: 31 ± 4 µM | K0.5 [2]: 17.6 ± 0.5 µM

artificially dimerized dynein construct GST-D384, Q14204 1288-4646
duty ratio rd (fraction of time that each head spends attached to a microtubule) [3]: 0.49 | duty ratio rd (fraction of time that each head spends attached to a microtubule) [4]: 0.59

human cytoplasmic dynein monomer construct D384, Q14204 1288-4646
Km^MT: Michaelis-Menten constant for microtubules of the microtubule-stimulated ATPase of D384 (EnzChek phosphate assay, 35 nM dynein, 0-25 μM microtubules, 1 mM ATP, 25 °C) [5]: 50 µM
